This is an account of results in patent publication US20200299415A1.

The target in assay [1] is cell surface receptors in membranes prepared from SH-SY5Y cells. In words: radioligand saturation binding on SH-SY5Y cell membranes, filtration, nonlinear regression; lower end of range.
Assay [2] shares this target. In words: radioligand saturation binding on SH-SY5Y cell membranes; upper end of printed range.
For assay [3] the target is unchanged. In words: radioligand saturation binding on SH-SY5Y cell membranes, filtration, nonlinear regression; upper end of printed range.
Assay [4] has the same target. In words: radioligand saturation binding on SH-SY5Y cell membranes; lower end of range.

For the substance “[3H][Dmt1]DALDA (2',6'-Dmt-D-Arg-Phe-Lys-NH2, tritiated) (peptide)”, the results for the Kd in assay [1] and in assay [3] were 0.087 nM and 0.149 nM, respectively. Further, the Bmax (fmol/mg protein) in assay [2] is 104; in assay [4] it was 88.
